Results as given in publication PMC8329073, “A kinetically controlled platform for ligand-oligonucleotide transduction”.

What was measured:
Thrombin = Thrombin (UniProt P00734;P00734 328-363;364-622); experiment: strand-displacement fluorescence (Rep-2); 2-500 nM thrombin; LOD 0.96 nM; 5 mM Mg2+; 20 mM Tris-HCl pH 7.5 (22 °C), 100 mM NaCl, 0.1 mM EDTA, 5 mM MgCl2 (20 mM MgCl2 for DNAzyme), room temperature; indirect read-out by strand-displacement fluore
PDGF-BB = PDGF-BB (human, UniProt P01127 82-190); experiment: strand-displacement fluorescence (Rep-2); 50 nM PDGF; 5 mM Mg2+; 20 mM Tris-HCl pH 7.5 (22 °C), 100 mM NaCl, 0.1 mM EDTA, 5 mM MgCl2 (20 mM MgCl2 for DNAzyme), room temperature; indirect read-out by strand-displacement fluorescence; conditions: protein: recombinant; chain copies: 2; hairpin, 2-bp stem
Sequence of PDGF-BB (P01127 82-190): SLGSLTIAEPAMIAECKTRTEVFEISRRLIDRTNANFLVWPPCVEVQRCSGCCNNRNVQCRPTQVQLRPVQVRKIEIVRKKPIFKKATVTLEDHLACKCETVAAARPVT

Binder	binding result (Thrombin)	binding result (PDGF-BB)
Apt-Thr-3bp (= Apt-Thr-OR, Apt-Thr-NOT) (structured_DNA) DNA: ATGTCAACGTTGTCCGTGGTAGGGCAGGTTGGGGTGACTTGGATAGGTAGGGTACGCT	binds	
Apt-PDGF-2bp (structured_DNA) DNA: ATGTCAACGTTGGCTACGGCACGTAGAGCATCACCATGATCCTTGGATAGGTAGGGTACGCT		binds
